{
  "source": "patent US20240092841A1",
  "key": {"[1]": {"target": "Adhesion G protein-coupled receptor L2 (human) (UniProt O95490)", "sequence (O95490 other isoform, or with tags, fused parts or gaps limits assumed)": "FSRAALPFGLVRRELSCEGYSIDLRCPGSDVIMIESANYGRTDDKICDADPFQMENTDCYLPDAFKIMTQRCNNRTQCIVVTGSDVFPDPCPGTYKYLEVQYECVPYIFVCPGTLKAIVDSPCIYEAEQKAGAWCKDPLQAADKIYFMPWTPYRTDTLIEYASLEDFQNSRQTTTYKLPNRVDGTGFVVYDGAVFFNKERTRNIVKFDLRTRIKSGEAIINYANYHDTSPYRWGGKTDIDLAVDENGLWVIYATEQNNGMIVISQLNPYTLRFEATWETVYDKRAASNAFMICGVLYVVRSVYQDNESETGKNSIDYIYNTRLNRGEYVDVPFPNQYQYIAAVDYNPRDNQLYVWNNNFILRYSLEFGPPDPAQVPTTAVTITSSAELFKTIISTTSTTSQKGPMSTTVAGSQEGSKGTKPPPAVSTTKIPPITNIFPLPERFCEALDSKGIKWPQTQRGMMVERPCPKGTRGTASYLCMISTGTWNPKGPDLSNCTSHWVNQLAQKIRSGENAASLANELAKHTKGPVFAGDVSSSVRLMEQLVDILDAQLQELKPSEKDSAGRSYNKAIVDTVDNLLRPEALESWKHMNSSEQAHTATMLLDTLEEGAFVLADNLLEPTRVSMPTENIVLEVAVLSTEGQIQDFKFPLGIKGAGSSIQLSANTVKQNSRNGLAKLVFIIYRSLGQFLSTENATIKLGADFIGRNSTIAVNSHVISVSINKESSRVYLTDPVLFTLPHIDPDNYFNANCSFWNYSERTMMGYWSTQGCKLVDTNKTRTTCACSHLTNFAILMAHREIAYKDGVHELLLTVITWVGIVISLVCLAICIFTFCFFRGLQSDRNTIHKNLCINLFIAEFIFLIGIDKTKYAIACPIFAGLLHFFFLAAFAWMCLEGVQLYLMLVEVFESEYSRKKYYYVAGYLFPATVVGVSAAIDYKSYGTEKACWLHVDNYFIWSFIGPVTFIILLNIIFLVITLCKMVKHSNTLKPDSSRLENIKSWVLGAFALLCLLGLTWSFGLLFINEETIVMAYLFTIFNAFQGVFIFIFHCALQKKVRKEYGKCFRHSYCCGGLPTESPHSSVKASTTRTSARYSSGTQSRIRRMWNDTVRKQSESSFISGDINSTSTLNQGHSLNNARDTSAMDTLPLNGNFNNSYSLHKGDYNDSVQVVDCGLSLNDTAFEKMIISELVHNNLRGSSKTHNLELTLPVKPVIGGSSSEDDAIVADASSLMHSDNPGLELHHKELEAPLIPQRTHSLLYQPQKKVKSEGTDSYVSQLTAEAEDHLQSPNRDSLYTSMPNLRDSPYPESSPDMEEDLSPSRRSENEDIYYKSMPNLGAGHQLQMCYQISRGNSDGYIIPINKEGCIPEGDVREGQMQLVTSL", "assay": "co-IP with agarose-bound AvFc from A549 whole-cell lysate, mass spectrometry"}, "[2]": {"target": "Agrin (human) (UniProt O00468)", "assay": "co-IP with agarose-bound AvFc from A549 whole-cell lysate, mass spectrometry"}, "[3]": {"target": "Attractin (human) (UniProt O75882)", "assay": "co-IP with agarose-bound AvFc from A549 whole-cell lysate, mass spectrometry"}, "[4]": {"target": "Cation-dependent mannose-6-phosphate receptor (human) (UniProt P20645)", "sequence (P20645 27-277 limits assumed)": "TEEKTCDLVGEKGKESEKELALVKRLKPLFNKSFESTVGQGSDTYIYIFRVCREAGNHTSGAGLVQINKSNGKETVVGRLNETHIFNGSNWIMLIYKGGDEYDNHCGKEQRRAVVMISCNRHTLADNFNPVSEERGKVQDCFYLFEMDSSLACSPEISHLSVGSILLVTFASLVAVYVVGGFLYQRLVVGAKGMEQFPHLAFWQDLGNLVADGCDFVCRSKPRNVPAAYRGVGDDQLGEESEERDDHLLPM", "assay": "co-IP with agarose-bound AvFc from A549 whole-cell lysate, mass spectrometry"}, "[5]": {"target": "Cation-independent mannose-6-phosphate receptor (human) (UniProt P11717)", "assay": "co-IP with agarose-bound AvFc from A549 whole-cell lysate, mass spectrometry"}, "[6]": {"target": "Exportin-1 (human) (UniProt O14980)", "assay": "co-IP with agarose-bound AvFc from A549 whole-cell lysate, mass spectrometry"}, "[7]": {"target": "Importin subunit beta-1 (human) (UniProt Q14974)", "assay": "co-IP with agarose-bound AvFc from A549 whole-cell lysate, mass spectrometry"}, "[8]": {"target": "Integrin alpha-1 (human) (UniProt P56199)", "sequence (P56199 29-1179 limits assumed)": "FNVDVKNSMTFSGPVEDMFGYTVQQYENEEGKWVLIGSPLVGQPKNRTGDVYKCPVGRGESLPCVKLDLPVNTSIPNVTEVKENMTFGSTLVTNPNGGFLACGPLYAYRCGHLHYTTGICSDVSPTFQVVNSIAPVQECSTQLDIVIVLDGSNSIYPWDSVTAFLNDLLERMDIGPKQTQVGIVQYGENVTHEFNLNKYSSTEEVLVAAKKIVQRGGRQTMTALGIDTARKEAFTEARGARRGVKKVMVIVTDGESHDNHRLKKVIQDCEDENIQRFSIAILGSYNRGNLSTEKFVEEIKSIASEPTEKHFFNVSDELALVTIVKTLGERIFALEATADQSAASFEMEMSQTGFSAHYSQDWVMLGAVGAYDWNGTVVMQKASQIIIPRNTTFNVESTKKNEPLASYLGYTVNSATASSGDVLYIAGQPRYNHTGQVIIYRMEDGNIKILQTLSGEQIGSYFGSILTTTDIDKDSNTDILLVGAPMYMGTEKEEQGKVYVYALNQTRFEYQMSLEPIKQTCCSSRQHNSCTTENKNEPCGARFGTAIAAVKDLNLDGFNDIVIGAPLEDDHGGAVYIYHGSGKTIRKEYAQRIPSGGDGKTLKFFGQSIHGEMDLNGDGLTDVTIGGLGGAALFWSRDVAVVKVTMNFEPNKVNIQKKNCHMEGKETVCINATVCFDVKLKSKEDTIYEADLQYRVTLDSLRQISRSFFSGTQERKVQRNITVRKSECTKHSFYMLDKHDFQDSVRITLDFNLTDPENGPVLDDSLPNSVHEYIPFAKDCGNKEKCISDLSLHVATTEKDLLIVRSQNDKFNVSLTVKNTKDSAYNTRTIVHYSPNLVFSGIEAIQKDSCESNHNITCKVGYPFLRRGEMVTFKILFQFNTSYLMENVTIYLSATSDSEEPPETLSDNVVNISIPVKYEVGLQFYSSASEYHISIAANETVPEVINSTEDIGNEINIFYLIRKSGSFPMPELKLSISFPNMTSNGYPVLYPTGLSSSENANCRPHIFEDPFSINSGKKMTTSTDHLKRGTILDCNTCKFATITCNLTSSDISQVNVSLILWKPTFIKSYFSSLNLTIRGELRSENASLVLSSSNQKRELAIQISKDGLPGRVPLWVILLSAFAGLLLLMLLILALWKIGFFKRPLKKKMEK", "assay": "co-IP with agarose-bound AvFc from A549 whole-cell lysate, mass spectrometry"}, "[9]": {"target": "Integrin alpha-3 (human) (UniProt P26006)", "sequence (P26006 33-1051 limits assumed)": "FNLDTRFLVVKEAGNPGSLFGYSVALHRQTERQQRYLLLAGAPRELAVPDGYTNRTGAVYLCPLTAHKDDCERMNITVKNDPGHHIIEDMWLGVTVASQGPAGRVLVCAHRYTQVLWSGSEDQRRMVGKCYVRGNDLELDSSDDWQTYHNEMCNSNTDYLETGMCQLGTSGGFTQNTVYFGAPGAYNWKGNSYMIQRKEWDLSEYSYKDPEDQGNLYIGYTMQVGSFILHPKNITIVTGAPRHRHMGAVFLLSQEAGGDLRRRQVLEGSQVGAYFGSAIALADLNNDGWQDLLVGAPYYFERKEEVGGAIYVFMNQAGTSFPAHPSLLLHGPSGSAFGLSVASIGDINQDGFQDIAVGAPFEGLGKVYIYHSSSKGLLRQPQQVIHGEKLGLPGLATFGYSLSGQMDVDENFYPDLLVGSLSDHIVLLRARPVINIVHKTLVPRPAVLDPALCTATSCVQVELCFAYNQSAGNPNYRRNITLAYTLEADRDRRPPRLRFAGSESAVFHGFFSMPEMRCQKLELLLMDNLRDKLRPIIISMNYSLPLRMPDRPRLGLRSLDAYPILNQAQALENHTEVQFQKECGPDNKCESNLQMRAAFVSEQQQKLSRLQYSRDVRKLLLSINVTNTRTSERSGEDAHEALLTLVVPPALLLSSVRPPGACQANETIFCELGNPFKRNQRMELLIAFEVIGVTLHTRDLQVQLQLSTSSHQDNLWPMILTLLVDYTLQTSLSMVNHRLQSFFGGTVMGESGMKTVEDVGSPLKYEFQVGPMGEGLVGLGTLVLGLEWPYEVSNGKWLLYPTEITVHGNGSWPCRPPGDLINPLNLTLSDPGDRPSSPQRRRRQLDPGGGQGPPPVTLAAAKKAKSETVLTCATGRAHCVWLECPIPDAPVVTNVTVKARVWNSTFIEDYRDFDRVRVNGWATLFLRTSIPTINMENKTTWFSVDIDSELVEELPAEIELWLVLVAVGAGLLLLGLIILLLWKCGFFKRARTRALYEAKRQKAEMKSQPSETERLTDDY", "assay": "co-IP with agarose-bound AvFc from A549 whole-cell lysate, mass spectrometry"}, "[10]": {"target": "Integrin beta-5 (human) (UniProt P18084)", "assay": "co-IP with agarose-bound AvFc from A549 whole-cell lysate, mass spectrometry"}, "[11]": {"target": "Isoform 6 of Myoferlin (human) (UniProt Q9NZM1)", "assay": "co-IP with agarose-bound AvFc from A549 whole-cell lysate, mass spectrometry"}, "[12]": {"target": "Laminin subunit alpha-5 (human) (UniProt O15230)", "assay": "co-IP with agarose-bound AvFc from A549 whole-cell lysate, mass spectrometry"}, "[13]": {"target": "Laminin subunit beta-2 (human) (UniProt P55268)", "assay": "co-IP with agarose-bound AvFc from A549 whole-cell lysate, mass spectrometry"}, "[14]": {"target": "Laminin subunit gamma-1 (human) (UniProt P11047)", "assay": "co-IP with agarose-bound AvFc from A549 whole-cell lysate, mass spectrometry"}, "[15]": {"target": "Magnesium transporter protein 1 (human) (UniProt Q9H0U3)", "sequence (Q9H0U3 30-335 limits assumed)": "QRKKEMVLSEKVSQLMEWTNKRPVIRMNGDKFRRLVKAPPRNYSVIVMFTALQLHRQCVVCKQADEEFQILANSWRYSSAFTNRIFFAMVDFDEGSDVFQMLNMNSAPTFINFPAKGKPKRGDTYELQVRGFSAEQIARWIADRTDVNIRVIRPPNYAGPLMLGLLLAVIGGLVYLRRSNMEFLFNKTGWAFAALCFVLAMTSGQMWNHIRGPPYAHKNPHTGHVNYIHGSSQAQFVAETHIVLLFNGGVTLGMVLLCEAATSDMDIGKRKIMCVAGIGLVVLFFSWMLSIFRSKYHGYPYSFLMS", "assay": "co-IP with agarose-bound AvFc from A549 whole-cell lysate, mass spectrometry"}, "[16]": {"target": "Mucin-5AC (human) (UniProt P98088)", "assay": "co-IP with agarose-bound AvFc from A549 whole-cell lysate, mass spectrometry"}, "[17]": {"target": "Neutral amino acid transporter B (0) (human) (UniProt Q15758)", "sequence (Q15758 whole entry)": "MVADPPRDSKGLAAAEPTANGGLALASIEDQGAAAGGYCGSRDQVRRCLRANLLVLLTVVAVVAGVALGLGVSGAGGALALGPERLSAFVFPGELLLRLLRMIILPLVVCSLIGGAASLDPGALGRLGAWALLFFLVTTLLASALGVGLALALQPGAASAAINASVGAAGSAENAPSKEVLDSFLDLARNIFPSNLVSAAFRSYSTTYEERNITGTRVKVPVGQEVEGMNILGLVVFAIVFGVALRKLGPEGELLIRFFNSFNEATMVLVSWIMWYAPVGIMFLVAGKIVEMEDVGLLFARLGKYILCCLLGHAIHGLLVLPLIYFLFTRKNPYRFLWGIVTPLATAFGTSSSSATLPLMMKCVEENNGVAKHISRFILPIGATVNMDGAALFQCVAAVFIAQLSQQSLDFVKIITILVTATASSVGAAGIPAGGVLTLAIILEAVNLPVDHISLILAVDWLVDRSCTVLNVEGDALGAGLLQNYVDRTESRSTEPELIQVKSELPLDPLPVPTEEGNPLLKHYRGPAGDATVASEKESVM", "assay": "co-IP with agarose-bound AvFc from A549 whole-cell lysate, mass spectrometry"}, "[18]": {"target": "Plexin-B2 (human) (UniProt O15031)", "assay": "co-IP with agarose-bound AvFc from A549 whole-cell lysate, mass spectrometry"}, "[19]": {"target": "Protocadherin Fat 1 (human) (UniProt Q14517)", "assay": "co-IP with agarose-bound AvFc from A549 whole-cell lysate, mass spectrometry"}, "[20]": {"target": "Solute carrier family 2, facilitated glucose transporter member 1 (human) (UniProt P11166)", "assay": "co-IP with agarose-bound AvFc from A549 whole-cell lysate, mass spectrometry"}, "[21]": {"target": "T-complex protein 1 subunit theta (human) (UniProt P50990)", "assay": "co-IP with agarose-bound AvFc from A549 whole-cell lysate, mass spectrometry"}, "[22]": {"target": "Tetratricopeptide repeat protein 13 (human) (UniProt Q8NBP0)", "assay": "co-IP with agarose-bound AvFc from A549 whole-cell lysate, mass spectrometry"}, "[23]": {"target": "Transmembrane and TPR repeat-containing protein 3 (human) (UniProt Q6ZXV5)", "assay": "co-IP with agarose-bound AvFc from A549 whole-cell lysate, mass spectrometry"}, "[24]": {"target": "Transmembrane protein 106B (human) (UniProt Q9NUM4)", "sequence (Q9NUM4 2-274 limits assumed)": "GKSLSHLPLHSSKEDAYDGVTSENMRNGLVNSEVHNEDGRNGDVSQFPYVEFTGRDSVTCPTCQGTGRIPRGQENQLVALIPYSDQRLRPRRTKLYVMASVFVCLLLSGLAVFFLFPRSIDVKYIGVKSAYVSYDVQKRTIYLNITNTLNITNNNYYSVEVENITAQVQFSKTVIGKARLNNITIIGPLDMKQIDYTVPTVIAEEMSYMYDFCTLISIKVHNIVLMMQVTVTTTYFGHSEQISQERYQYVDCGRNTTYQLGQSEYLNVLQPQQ", "assay": "co-IP with agarose-bound AvFc from A549 whole-cell lysate, mass spectrometry"}, "[25]": {"target": "Transmembrane protein 131 (human) (UniProt Q92545)", "assay": "co-IP with agarose-bound AvFc from A549 whole-cell lysate, mass spectrometry"}, "[26]": {"target": "Transmembrane protein 2 (human) (UniProt Q9UHN6)", "assay": "co-IP with agarose-bound AvFc from A549 whole-cell lysate, mass spectrometry"}, "[27]": {"target": "Tropomyosin alpha-3 chain (human) (UniProt P06753)", "assay": "co-IP with agarose-bound AvFc from A549 whole-cell lysate, mass spectrometry"}, "[28]": {"target": "CD109 antigen (Q6YHK3-4) (human) (UniProt Q6YHK3)", "assay": "co-IP with agarose-bound AvFc from H460 whole-cell lysate, mass spectrometry"}, "[29]": {"target": "Disintegrin and metalloproteinase domain-containing protein 9 (human) (UniProt Q13443)", "assay": "co-IP with agarose-bound AvFc from H460 whole-cell lysate, mass spectrometry"}, "[30]": {"target": "Epidermal growth factor receptor (human) (UniProt P00533)", "assay": "co-IP with agarose-bound AvFc from H460 whole-cell lysate, mass spectrometry"}, "[31]": {"target": "Fibronectin (human) (UniProt P02751)", "assay": "co-IP with agarose-bound AvFc from H460 whole-cell lysate, mass spectrometry"}, "[32]": {"target": "Galectin-3-binding protein (human) (UniProt Q08380)", "assay": "co-IP with agarose-bound AvFc from H460 whole-cell lysate, mass spectrometry"}, "[33]": {"target": "Insulin-like growth factor 1 receptor (human) (UniProt P08069)", "assay": "co-IP with agarose-bound AvFc from H460 whole-cell lysate, mass spectrometry"}, "[34]": {"target": "Integrin alpha-2 (human) (UniProt P17301)", "assay": "co-IP with agarose-bound AvFc from H460 whole-cell lysate, mass spectrometry"}, "[35]": {"target": "Integrin alpha-3 (human) (UniProt P26006)", "assay": "co-IP with agarose-bound AvFc from H460 whole-cell lysate, mass spectrometry"}, "[36]": {"target": "Magnesium transporter protein 1 (human) (UniProt Q9H0U3)", "assay": "co-IP with agarose-bound AvFc from H460 whole-cell lysate, mass spectrometry"}, "[37]": {"target": "Metal transporter CNNM4 (human) (UniProt Q6P4Q7)", "assay": "co-IP with agarose-bound AvFc from H460 whole-cell lysate, mass spectrometry"}, "[38]": {"target": "Tetratricopeptide repeat protein 13 (Q8NBP0-2) (human) (UniProt Q8NBP0)", "assay": "co-IP with agarose-bound AvFc from H460 whole-cell lysate, mass spectrometry"}},
  "data": [
    {"substance": "Avaren-Fc (AvFc) (Fc fusion)", "values": [
      {"measurement": "Percentage of Total Spectra (%)", "setting": "[1]", "result": 0.091, "unit": "%"},
      {"measurement": "Percentage of Total Spectra (%)", "setting": "[2]", "result": 0.21, "unit": "%"},
      {"measurement": "Percentage of Total Spectra (%)", "setting": "[3]", "result": 0.084, "unit": "%"},
      {"measurement": "Percentage of Total Spectra (%)", "setting": "[4]", "result": 0.028, "unit": "%"},
      {"measurement": "Percentage of Total Spectra (%)", "setting": "[5]", "result": 0.2, "unit": "%"},
      {"measurement": "Percentage of Total Spectra (%)", "setting": "[6]", "result": 0.056, "unit": "%"},
      {"measurement": "Percentage of Total Spectra (%)", "setting": "[7]", "result": 0.056, "unit": "%"},
      {"measurement": "Percentage of Total Spectra (%)", "setting": "[8]", "result": 0.021, "unit": "%"},
      {"measurement": "Percentage of Total Spectra (%)", "setting": "[9]", "result": 0.15, "unit": "%"},
      {"measurement": "Percentage of Total Spectra (%)", "setting": "[10]", "result": 0.11, "unit": "%"},
      {"measurement": "Percentage of Total Spectra (%)", "setting": "[11]", "result": 0.17, "unit": "%"},
      {"measurement": "Percentage of Total Spectra (%)", "setting": "[12]", "result": 0.34, "unit": "%"},
      {"measurement": "Percentage of Total Spectra (%)", "setting": "[13]", "result": 0.056, "unit": "%"},
      {"measurement": "Percentage of Total Spectra (%)", "setting": "[14]", "result": 0.36, "unit": "%"},
      {"measurement": "Percentage of Total Spectra (%)", "setting": "[15]", "result": 0.021, "unit": "%"},
      {"measurement": "Percentage of Total Spectra (%)", "setting": "[16]", "result": 0.21, "unit": "%"},
      {"measurement": "Percentage of Total Spectra (%)", "setting": "[17]", "result": 0.014, "unit": "%"},
      {"measurement": "Percentage of Total Spectra (%)", "setting": "[18]", "result": 0.12, "unit": "%"},
      {"measurement": "Percentage of Total Spectra (%)", "setting": "[19]", "result": 0.12, "unit": "%"},
      {"measurement": "Percentage of Total Spectra (%)", "setting": "[20]", "result": 0.007, "unit": "%"},
      {"measurement": "Percentage of Total Spectra (%)", "setting": "[21]", "result": 0.091, "unit": "%"},
      {"measurement": "Percentage of Total Spectra (%)", "setting": "[22]", "result": 0.13, "unit": "%"},
      {"measurement": "Percentage of Total Spectra (%)", "setting": "[23]", "result": 0.11, "unit": "%"},
      {"measurement": "Percentage of Total Spectra (%)", "setting": "[24]", "result": 0.098, "unit": "%"},
      {"measurement": "Percentage of Total Spectra (%)", "setting": "[25]", "result": 0.056, "unit": "%"},
      {"measurement": "Percentage of Total Spectra (%)", "setting": "[26]", "result": 0.11, "unit": "%"},
      {"measurement": "Percentage of Total Spectra (%)", "setting": "[27]", "result": 0.07, "unit": "%"},
      {"measurement": "Percentage of Total Spectra (%)", "setting": "[28]", "result": 0.13, "unit": "%"},
      {"measurement": "Percentage of Total Spectra (%)", "setting": "[29]", "result": 0.091, "unit": "%"},
      {"measurement": "Percentage of Total Spectra (%)", "setting": "[30]", "result": 0.058, "unit": "%"},
      {"measurement": "Percentage of Total Spectra (%)", "setting": "[31]", "result": 0.21, "unit": "%"},
      {"measurement": "Percentage of Total Spectra (%)", "setting": "[32]", "result": 0.17, "unit": "%"},
      {"measurement": "Percentage of Total Spectra (%)", "setting": "[33]", "result": 0.033, "unit": "%"},
      {"measurement": "Percentage of Total Spectra (%)", "setting": "[34]", "result": 0.0083, "unit": "%"},
      {"measurement": "Percentage of Total Spectra (%)", "setting": "[35]", "result": 0.025, "unit": "%"},
      {"measurement": "Percentage of Total Spectra (%)", "setting": "[36]", "result": 0.017, "unit": "%"},
      {"measurement": "Percentage of Total Spectra (%)", "setting": "[37]", "result": 0.083, "unit": "%"},
      {"measurement": "Percentage of Total Spectra (%)", "setting": "[38]", "result": 0.11, "unit": "%"}
    ]}
  ]
}
